Amyloid nucleation score data for 134 substances are collected here from the supplement of paper PMC12042874.

± gives the uncertainty stated by the source.

A short description of this data set: amyloid nucleation score (Sup35N fusion, yeast selection) (log enrichment); library NNK3; higher = more nucleation; inactive = no reads after selection. Summed up:
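The nucleation score is a DiMSum log enrichment of output over input reads, centred on the mode score of non-aggregating sequences. Sequences under 100 input reads were excluded, and reads came from Illumina sequencing of plasmid inserts. Psi-negative yeast expressing Sup35N fused to peptides of 20 random codons were induced with 100 μM copper sulfate for 24 hours and grown 7 days at 30°C on medium lacking adenine and uracil. Random libraries had three technical output replicates.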
IVEGHLSIIGWYEGNFPHML came in with an amyloid nucleation score of 0.145 ± 0.42.

Take IVERSGVSGIWYLSGDLAKV: the amyloid nucleation score entry is “inactive”.

Turning to IVFEMLPWPVG, the amyloid nucleation score is -0.435 ± 1.9. As for IVGNLRDKDNYIVGRLEDSD, the amyloid nucleation score entry was “inactive”.

For IVISEALVFASGYKQVFNSV, the amyloid nucleation score entry is “inactive”. For the substance IVKNDGNGHLLYTLCVFRFW, the amyloid nucleation score result was “inactive”. The entry for IVLWVFVLTITLN is “inactive”; for IVMKALNAFWTRTMLMFHHM it is “inactive”. In turn, IVQLVIFLSRYDVLELCMHK yielded an amyloid nucleation score of 0.07 ± 0.47. In the case of IVREVGTA, the amyloid nucleation score entry is “inactive”. IVSKMAVYMAGTSALVLPLL: the amyloid nucleation score was -0.086 ± 0.88.

As for IVTIFSFQYGWGFLCTRLNF, the amyloid nucleation score result was “inactive”. In turn, IVTLCSIFDFAFVVTASTMG returned an amyloid nucleation score of 1.13 ± 0.16. As for IVVCFRSRRFCSSRYHS, the amyloid nucleation score entry was “inactive”. For the substance IVVLNVNTPWSMFQGVGSIQ, the amyloid nucleation score stood at 2.58 ± 0.085. IVYLDIDVFFMFLCVASRTE gave an amyloid nucleation score of 1.59 ± 0.081. In the case of IWGMIFIGKSSYDISDYVCH, the amyloid nucleation score result is “inactive”.

For IWLVLESCNVPFL, the amyloid nucleation score result was “inactive”. With IWYRDSFLPSGRYWFLRINW, the amyloid nucleation score result was “inactive”. With IYCYRLALF the entry was “inactive”; with IYGHCCIISAWVWGNESLVL, “inactive”. For IYGLPRYFVGYGFFKSYVRL, the amyloid nucleation score entry was “inactive”. With IYGNFS the entry was “inactive”; with IYGNSFPEGIHRTGWESYHR, “inactive”. Substance IYIGQFSLVVCVIIDIDI had an amyloid nucleation score of 1.75 ± 0.11. Turning to IYIVTYICPVSSRLKGLLCQ, the amyloid nucleation score result was “inactive”. With IYMFVHIK the figure was 1.68 ± 0.086; with IYNVFDDEDMICTSLVVSRS, “inactive”; with IYRLDSSTSCICHCFLILVF, “inactive”. With IYRSIRQAVLCLGLSGS the entry was “inactive”.

As to IYSDHAL, the amyloid nucleation score entry is “inactive”. For the substance IYVGHK, the amyloid nucleation score entry was “inactive”. For the substance KAAEDMRGFHCGARKSIRVD, the amyloid nucleation score result is “inactive”. For KADECS, the amyloid nucleation score result was “inactive”.

Take KAKPVSKCA: the amyloid nucleation score result was “inactive”. KALWCGYE: the amyloid nucleation score entry was “inactive”.

Consider KAPDVLVNGRIL, for which the amyloid nucleation score entry was “inactive”. With KAVGRSIVYDFGSALCEMIN the figure was 1.4 ± 0.12. Turning to KAVQAVVLSLTGWFGVERLY, the amyloid nucleation score entry is “inactive”. The figure for KCCTGERYSLIGFLHFCGEM is 0.891 ± 0.15.

The substance KCLEGLMVVANDWWVKCFTS showed an amyloid nucleation score of 0.671 ± 0.24.

In the case of KCMFMEDCPLPEWSDLEVGL, the amyloid nucleation score result was “inactive”. Turning to KCSFFMFAVEKEAKNWMVTN, the amyloid nucleation score entry was “inactive”. The figure for KCTFFDTCVTQTCLFNMFGC is 2.34 ± 0.063. As for KCWPIVCNLWNREWQCSLIR, the amyloid nucleation score result is “inactive”. As to KCYLKSGLDNLVYDLD, the amyloid nucleation score entry was “inactive”. On to KDYLWNILRIT, for which the amyloid nucleation score entry was “inactive”. For KEMGW, the amyloid nucleation score result was “inactive”.

As for KEYGLFLYLNFFLDWFNFIN, the amyloid nucleation score entry was “inactive”.

On to KFCGEH, for which the amyloid nucleation score result was “inactive”. With KFCISSKDKIF, the amyloid nucleation score entry was “inactive”.

For KFMIVVKCSM, the amyloid nucleation score worked out at 0.745 ± 0.2. The entry for KFNSRNRS is “inactive”; for KGEDPPHCSTEIPCMSRQLL it is “inactive”; for KGITYLNVRFKNRCPMVFGG it is “inactive”. As for KGLASSYRTTYAVDL, the amyloid nucleation score result was “inactive”.

Regarding KGLCL, the amyloid nucleation score entry was “inactive”. On to KGLSLGCIFKGLEFREQGVE, for which the amyloid nucleation score result is “inactive”. As for KGMDMVI, the amyloid nucleation score result is “inactive”. With KGNRFPRVLGIMFAFLFGSE the entry was “inactive”. With KGSTLLSNIARMVVTCKARP the entry was “inactive”; with KICRIYAMGVLLSDTVSTMS, “inactive”; with KIFSSLFRK, 0.251 ± 0.18. Turning to KILLHRRHVTPCFKCLNRLD, the amyloid nucleation score entry is “inactive”. The substance KILRRNTWNMFPAALCGVSF registered an amyloid nucleation score of 0.997 ± 0.21. Substance KIMFLMGSASMDSTGTC registered an amyloid nucleation score of 0.863 ± 0.12. In the case of KIQSSTNLPFGASL, the amyloid nucleation score result was “inactive”. On to KIRIGW, for which the amyloid nucleation score result is “inactive”.

Take KISISD: the amyloid nucleation score entry was “inactive”. With KISLISTNCLYMVFPYRYSR the figure was 2.13 ± 0.06. In the case of KITSRGCN, the amyloid nucleation score entry was “inactive”. As for KIVFPLNLG, the amyloid nucleation score result was “inactive”. On to KIYGIPYCTRVGCNLWPGAG, for which the amyloid nucleation score was 0.294 ± 0.39. For KKYVVFNGCSPYM, the amyloid nucleation score result is “inactive”. KLCDCVMLLFTLDTRIGNVL had an amyloid nucleation score of 0.053 ± 0.7. With KLCVESRIIYTFV the entry was “inactive”. KLDLKCIIRHWV: the amyloid nucleation score result was “inactive”. Take KLFGRCNSNSPIVGWIRCGL: the amyloid nucleation score result is “inactive”. Take KLGGLSMRTSYIMPGRTFTS: the amyloid nucleation score entry was “inactive”.

KLGIGFPWCGRLHIEHSKMR: the amyloid nucleation score entry was “inactive”.

The substance KLLCSLNLVIADEFLTKKGD gave an amyloid nucleation score of 1.85 ± 0.099. On to KLLFLSYTYWWKSHFWRFRT, for which the amyloid nucleation score entry was “inactive”. With KLLSSGFMMFWASYQTGYWR, the amyloid nucleation score entry was “inactive”. The figure for KLPGLFQLCDMCVIGLKNAY is 0.513 ± 0.17.

In the case of KLPMRVGLM, the amyloid nucleation score entry was “inactive”. With KLPVKGRMPVVF the entry was “inactive”. On to KLVCRIIDAKAH, for which the amyloid nucleation score result is “inactive”. Consider KLVVNSKPYMNYVSVDEIIM, for which the amyloid nucleation score result was “inactive”. The entry for KMHWNAGDQLYVRSPTHSLR is “inactive”; for KMKSAIIPVECGSR it is “inactive”; for KMLQLVVGIRILVNRMSWSR it is “inactive”. For the substance KMTLYIFCLAFMLWESNQII, the amyloid nucleation score entry is “inactive”.

For KMWCNGMAISLHVRRLCQV, the amyloid nucleation score entry is “inactive”. As to KNCIGRFW, the amyloid nucleation score entry was “inactive”. Consider KNIKTSIIYSYYALIIR, for which the amyloid nucleation score came out at 2.47 ± 0.074. Turning to KNKYQLN, the amyloid nucleation score entry was “inactive”. In the case of KPNLRFLS, the amyloid nucleation score entry was “inactive”.

With KPWGPGIIGSGSRIMTDVVE, the amyloid nucleation score entry is “inactive”. Take KRDWHLVTMG: the amyloid nucleation score was -0.134 ± 0.32. Regarding KREAFNQALADNHQLQMLYE, the amyloid nucleation score was determined as 0.615 ± 0.12.

Take KRECYMIIHI: the amyloid nucleation score result is “inactive”.

As to KRISDRIFCFCLKHGVGLFG, the amyloid nucleation score result was “inactive”. Turning to KRLFVTFFLSSLRGNILMWG, the amyloid nucleation score result was “inactive”. For the substance KRLHTS, the amyloid nucleation score result is “inactive”. With KRMLCWFINKVIYLRYLWQV the entry was “inactive”; with KSERLNLVGILVSLVRPVCL, “inactive”; with KSGICGCVGHLVHKPMQLRV, “inactive”. The figure for KSGIV is 0.633 ± 0.19; for KSQLFLMWSSSKLLTYTVQA it is “inactive”; for KSREWLLSYFCYGW it is “inactive”.

For the substance KSVNLHA, the amyloid nucleation score entry was “inactive”. The entry for KTDTCRNIL is “inactive”.

Consider KTFMSCFGMGKEEGLSHFPR, for which the amyloid nucleation score result is “inactive”. As to KTHCCC, the amyloid nucleation score result is “inactive”. On to KTSAVRLATNIVLTFHSILY, for which the amyloid nucleation score entry was “inactive”. Regarding KTSIRRCLSIRC, the amyloid nucleation score result is “inactive”. Turning to KVCFCSLL, the amyloid nucleation score is 2.94 ± 0.075. In turn, KVICVLFKIMKLF registered an amyloid nucleation score of 0.442 ± 0.18.

Consider KVIKDNLEVCFLKSMWC, for which the amyloid nucleation score entry is “inactive”. In the case of KVLQPANVLRLTGFVSVRGV, the amyloid nucleation score result is “inactive”.

With KVRSARVRMHHNRYDKEMSG, the amyloid nucleation score result was “inactive”. With KVTMPLQSYTLYSMYICLLS, the amyloid nucleation score result was “inactive”.

With KWLVPTQG, the amyloid nucleation score result was “inactive”. The entry for KWNCHLVLPLWIPGLVMMGR is “inactive”; for KWNHYWDIVFCTSYFNSTFM it is 2.29 ± 0.066. With KYGWVLFYGCYYCGHGWTNL the entry was “inactive”; with KYLWDLATHNIFAGSKMMDN, “inactive”. Regarding KYNANYQSSYNIVRLYRVFW, the amyloid nucleation score entry is “inactive”. Consider KYPNRKLF, for which the amyloid nucleation score result is “inactive”.

For KYPSYLNLSCVAVKYVWCSE, the amyloid nucleation score worked out at 1.94 ± 0.071. Take KYQLHYLDVFFYDVV: the amyloid nucleation score entry is “inactive”. KYWSLGNGCTTKRWSGGFVS: the amyloid nucleation score entry was “inactive”. Substance KYYFRGWKTEPVTWFGCQAM registered an amyloid nucleation score of 0.488 ± 0.2. Turning to KYYTSRNRWRYMV, the amyloid nucleation score is -0.291 ± 0.68.
